Reference: patent publication US20250388688A1 (ETHYREAL BIO, published 2025)
Positions count from the first letter of the chain named. Each block holds one molecule with its values, some of them ahead of it.

What was measured:
[1] = target: T1, soluble TSHR protein (ELISA coat) (human, UniProt P16473 22-260, limits assumed); assay: ELISA, plate coated with soluble TSHR, antibody at 33.3 nM, anti-human IgG Fc-HRP (blank 0.051)
[2] = target: T1, soluble TSHR protein (ELISA coat); assay: ELISA, plate coated with soluble TSHR, antibody at 300 nM, anti-human IgG Fc-HRP (blank 0.055)
[3] = target: T1, soluble TSHR protein (ELISA coat); assay: ELISA, plate coated with soluble TSHR, antibody at 100 nM, anti-human IgG Fc-HRP (blank 0.052)
[4] = target: T1, soluble TSHR protein (ELISA coat); assay: ELISA, plate coated with soluble TSHR, antibody at 33.3 nM, anti-human IgG Fc-HRP;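 further: binding of antibody variants to plate-bound soluble TSHR (coated at 2 µg/ml), with bound human IgG detected by HRP conjugate and colour developed using TMB substrate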
Protocol: (§1) Select TSHR antibody variants were tested for their ability to bind TSHR in an ELISA. Briefly, soluble TSHR protein was coated onto a plate at 2 μg/ml in phosphate buffered saline (PBS). The plate was washed with PBS and blocked with 4% skim milk in PBS.
(§2) Following wash steps with 1×PBS-Tween 0.05%, bound human IgG was detected with peroxidase conjugated goat anti-human IgG (Fc specific)-HRP at 1:5000 dilution and the ELISA was developed with TMB reagent followed by H2SO4.

[5] = target: T1, soluble TSHR protein (ELISA coat); assay: ELISA, plate coated with soluble TSHR, antibody at 100 nM, anti-human IgG Fc-HRP;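 further: binding of antibody variants to soluble TSHR coated at 2 µg/ml, with colour developed using TMB substrate and stopped with H2SO4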
Protocol: as §1, §2

[6] = target: T2, Soluble TSHR (22-260) protein (human, UniProt P16473 22-260); assay: SPR (Biacore T200, 25 C), antibody captured on anti-human Fc, soluble TSHR (22-260) as analyte, 1:1 fit;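 further: antibodies captured at 0.1 ug/mL on a CM5 sensor chip bearing anti-human Fc, with HBS-EP+ running buffer at pH 7.4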
T2 construct: range 22-260
Protocol: Measurements were taken on a Biacore T200 at 25 C using a CM5 chip coated with anti-human Fc. Test antibodies were captured at 0.1 ug/mL in HBS-EP+ (10 mM HEPES pH7.4, 150 mM NaCl, 3 mM EDTA, 0.05% Tween 20) assay buffer. […] A 1:1 binding kinetics fit was used to calculate kinetic parameters.

[7] = target: T1, soluble TSHR protein (ELISA coat); assay: ELISA, plate coated with soluble TSHR, antibody at 300 nM, anti-human IgG Fc-HRP;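 further: TSHR coated at 2 µg/ml, bound antibody revealed by goat anti-human IgG Fc HRP, color developed with TMB and stopped with H2SO4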
Protocol: as §1, §2

Molecule: human IgG1 isotype control antibody
ELISA (OD 450) at 33.3 nM [1]: 0.063 OD 450 | ELISA (OD 450) at 300 nM [2]: 0.055 OD 450 | ELISA (OD 450) at 100 nM [3]: 0.057 OD 450

B2: TSHB-24 (antibody, V domains shown)
VH: EVQLVQSGAEVKKPGESLKISCKASGYSLTDNWIGWVRQKPGKGLEWMGIIYPGDSDTRYSPSFQGQVTISADKSISTAYLQWSSLKASDTAIYYCVGLDWNYNPLRYWGQGTLVTVSS
VL: QSVLTQPPSVSGAPGQRVTISCSGSSSDIGSNYVSWYQQLPGTAPKLLIYDNNKRPSGVPDRFSGSKSGTSASLAITGLQAEDEADYYCGTWDSRLGIAVFGGGTKLTVL
ELISA (OD 450) at 33.3 nM [4]: 0.425 OD 450 | ELISA (OD 450) at 100 nM [5]: 0.49 OD 450 | Kd [6]: 2.7 nM | koff [6]: 0.000348 s⁻¹ | kon [6]: 129000 M⁻¹ s⁻¹ | ELISA (OD 450) at 300 nM [7]: 0.54 OD 450

B3: TSHB-20 (antibody, V domains shown)
VH: B2 VH with E16Q, S77N, Q111P
VL: B2 VL with G12A, R17K, D28N, V59I, S73T, A75G, A81T, E82G, K106Q
ELISA (OD 450) at 33.3 nM [4]: 0.411 OD 450 | ELISA (OD 450) at 100 nM [5]: 0.465 OD 450 | Kd [6]: 2.77 nM | koff [6]: 0.000301 s⁻¹ | kon [6]: 109000 M⁻¹ s⁻¹ | ELISA (OD 450) at 300 nM [7]: 0.54 OD 450

B5: TSHB-16 (antibody, V domains shown)
VH: B2 VH with E16Q, S77N, Q111P
VL: B2 VL with G12A, R17K, S31A, V59I, S73T, A75G, A81T, E82G, K106Q
ELISA (OD 450) at 33.3 nM [4]: 0.443 OD 450 | ELISA (OD 450) at 100 nM [5]: 0.487 OD 450 | Kd [6]: 2.7 nM | koff [6]: 0.000385 s⁻¹ | kon [6]: 142000 M⁻¹ s⁻¹ | ELISA (OD 450) at 300 nM [7]: 0.566 OD 450

Further lines, results first:

ELISA (OD 450) at 33.3 nM [4]: 0.443 OD 450 | ELISA (OD 450) at 100 nM [5]: 0.517 OD 450 | Kd [6]: 3.08 nM | koff [6]: 0.000372 s⁻¹ | kon [6]: 121000 M⁻¹ s⁻¹ | ELISA (OD 450) at 300 nM [7]: 0.569 OD 450
B1: TSHB-15 (antibody, V domains shown)
VH: B2 VH with E16Q, S77N, Q111P
VL: B2 VL with G12A, R17K, V59I, S73T, A75G, A81T, E82G, L96F, K106Q

ELISA (OD 450) at 33.3 nM [4]: 0.405 OD 450 | ELISA (OD 450) at 100 nM [5]: 0.47 OD 450 | Kd [6]: 3.12 nM | koff [6]: 0.000369 s⁻¹ | kon [6]: 118000 M⁻¹ s⁻¹ | ELISA (OD 450) at 300 nM [7]: 0.547 OD 450
B4: TSHB-19 (antibody, V domains shown)
VH: B2 VH with E16Q, S77N, Q111P
VL: B2 VL with G12A, R17K, Y33W, V59I, S73T, A75G, A81T, E82G, K106Q

ELISA (OD 450) at 33.3 nM [4]: 0.42 OD 450 | ELISA (OD 450) at 100 nM [5]: 0.495 OD 450 | Kd [6]: 2.94 nM | koff [6]: 0.000368 s⁻¹ | kon [6]: 125000 M⁻¹ s⁻¹ | ELISA (OD 450) at 300 nM [7]: 0.55 OD 450
B6: TSHB-18 (antibody, V domains shown)
VH: B2 VH with E16Q, S77N, Q111P
VL: B2 VL with G12A, R17K, S27T, V59I, S73T, A75G, A81T, E82G, K106Q

ELISA (OD 450) at 33.3 nM [4]: 0.357 OD 450 | ELISA (OD 450) at 100 nM [5]: 0.402 OD 450 | Kd [6]: 8.25 nM | koff [6]: 0.000407 s⁻¹ | kon [6]: 49400 M⁻¹ s⁻¹ | ELISA (OD 450) at 300 nM [7]: 0.475 OD 450
B7: TSHB-17 (antibody, V domains shown)
VH: B2 VH with E16Q, S77N, Q111P
VL: B2 VL with G12A, R17K, N32L, V59I, S73T, A75G, A81T, E82G, K106Q

ELISA (OD 450) at 33.3 nM [4]: 0.395 OD 450 | ELISA (OD 450) at 100 nM [5]: 0.473 OD 450 | Kd [6]: 3.1 nM | koff [6]: 0.000357 s⁻¹ | kon [6]: 115000 M⁻¹ s⁻¹ | ELISA (OD 450) at 300 nM [7]: 0.552 OD 450
B8: TSHB-21 (antibody, V domains shown)
VH: B2 VH with E16Q, S77N, Q111P
VL: B2 VL with G12A, R17K, V59I, S73T, A75G, A81T, E82G, G90A, K106Q

ELISA (OD 450) at 33.3 nM [4]: 0.512 OD 450 | ELISA (OD 450) at 100 nM [5]: 0.466 OD 450 | Kd [6]: 2.45 nM | koff [6]: 0.000344 s⁻¹ | kon [6]: 141000 M⁻¹ s⁻¹ | ELISA (OD 450) at 300 nM [7]: 0.538 OD 450
B9: TSHB-23 (antibody, V domains shown)
VH: B2 VH
VL: B2 VL with G12A, R17K, V59I, S73T, A75G, A81T, E82G, K106Q
